Assay [1] addresses β2AR ligated to a non-phosphorylated version of the V2R peptide, in HDL particles (β2ARnp) (human, UniProt P07550 1-365). Put plainly: cell-based or functional assay.
Assay [2] concerns the target T1, wild-type (WT) β2AR reconstituted in high-density lipoprotein particles (HDL-β2AR), non-phosphorylated (human, UniProt P07550 1-413). Put plainly: cell-based or functional assay.
In assay [3] the target is T1, wild-type (WT) β2AR reconstituted in …. Description: in situ read-outs: [125I]-CYP/isoproterenol competition binding with HDL-β2AR and bimane fluorescence.
Method: Bimane-labeled β2AR or β2ARpp HDLs were incubated with or without isoproterenol for 15 min at room temperature before the addition of excess transducer. […] The reactions were equilibrated for at least 30 min in black, solid-bottom 96-well microplates before fluorescence emission spectra were collected on a CLARIOstar plate reader (BMG LABTECH) in top-read mode, with excitation at 370 nm (16 nm bandpass) and emission scanning from 400 nm to 600 nm (10 nm bandpass) in 1 nm increments. Reactions were set up in duplicate in each experiment, and wells for background subtraction contained all components except the bimane-labeled HDLs. Experiments were repeated at least three times.
Radioligand Binding: All equilibrium competition radioligand binding studies were conducted in a final volume of 200 μL containing HDL-receptor, radioligand, a titration of unlabeled competitor, and the presence or absence of the indicated transducer protein. All components were diluted in assay buffer containing 20 mM HEPES, pH 7.4, 100 mM NaCl, and 1 mg/mL bovine serum albumin (BSA). […] Binding reactions proceeded at room temperature and were harvested onto glass-fiber filters (GFB) with 0.3% polyethyleneimine (PEI) using a 96-well Brandel harvester. Binding data were analyzed in GraphPad Prism using a sigmoidal dose-response curve fit, and differences in log IC50 values were analyzed by one-way ANOVA.

B1: β-arrestin1, minimal cysteine and truncated variant of rat βarr1 (βarr1-MC-393) (other, UniProt P29066 1-393, looked up)
chain: MGDKGTRVFKKASPNGKLTVYLGKRDFVDHIDLVDPVDGVVLVDPEYLKERRVYVTLTAAFRYGREDLDVLGLTFRKDLFVANVQSFPPAPEDKKPLTRLQERLIKKLGEHAYPFTFEIPPNLPSSVTLQPGPEDTGKAIGVDYEVKAFVAENLEEKIHKRNSVRLVIRKVQYAPERPGPQPTAETTRQFLMSDKPLHLEASLDKEIYYHGEPISVNVHVTNNTNKTVKKIKISVRQYADIVLFNTAQYKVPVAMEEADDTVAPSSTFSKVYTLTPFLANNREKRGLALDGKLKHEDTNLASSTLLREGANREILGIIVSYKVKVKLVVSRGGLLGDLASSDVAVELPFTLMHPKPKEEPPHREVPESETPVDTNLIELDTNDDDIVFEDFAR
notes: range 1-393; Expressed as GST fusion in BL21(DE3) and removed from GST by thrombin; also called βarr1-393 minimal cysteine
For the molecule B1, in assay [1], the “log IC50 of isoproterenol (ISO), [125I]-CYP competition binding, in the presence of βarr1 (no transducer: -6.42+/-0.09)” value was -6.49 log. Also, the “log IC50 of isoproterenol (ISO), [125I]-CYP competition binding, in the presence of βarr1 (no transducer: -6.82+/-0.03)” value in assay [2] is -6.81 log. Further, the binding result in assay [3] is reported as “no binding (tested: micromolar concentrations)”.

Source of the values: patent publication US20240101642A1 (DUKE UNIVERSITY, published 2024).
